According to US20170291959A1 (SORRENTO THERAPEUTICS, published 2017):
Values belong to the binder of their own block, whether it stands above or below them.

Target: T1, CD38 on Ramos cells (human, UniProt P28907 1-300)
T1 construct: whole, on cells; also called CD38 expressing cells; Ramos target cells
Experiment: ADCC assay on Ramos cells (binding inferred from it)
Protocol: The ability of anti-CD38 antibodies to bind to CD38 expressing cells and promote functional activity was determined using an antibody-dependent cell-mediated cytotoxicity (ADCC) assay. In this assay, Ramos cells, a Burkitt's lymphoma cell line, were added to wells at 5×10³ cells per well. Test antibodies (C38A2 (“38-A2”), C38D8 (“38-D8”) and C38D4 (“38-D4”) and control IgG) were then added at 1 microgram per ml and incubated with the Ramos cells for 20 minutes at 37° C. After washing, the effector cells were added at different concentrations resulting in three effector-to-target ratios. The effector cells were purified natural killer (NK) cells that had been incubated overnight in the presence of IL-2 (100 U/ml). The assay was allowed to proceed for at least 4 hours after which time cytotoxicity was evaluated using a Promega Cyto-glo kit.

binding result: binds
B1: C38D8 (antibody, V domains shown)
VH: QVQLVESGGGVVQPGGSLRLSCAASGFIVSTNYVHWVRQAPGKGLEWVSGIYSDPYTSYAYSDSVKGRFTISRDMSKNTVYLQMNRLRAEDTAVYYCARETNTGFSNSWYLDFWGQGTLVTVSS
VL: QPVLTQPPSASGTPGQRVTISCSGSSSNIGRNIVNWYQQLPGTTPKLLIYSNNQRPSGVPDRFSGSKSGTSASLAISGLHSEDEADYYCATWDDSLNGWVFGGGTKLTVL
notes: tested as an antibody beside an IgG matched control in the ADCC assay

binding result: binds
B2: C38A2 (antibody, V domains shown)
VH: QVQLVESGGGLVKPGGSLRLSCAASGFTFSDDYMSWIRQAPGKGLEWVASVSNGRPTTYYADSVRGRFTISRDNAKNSLYLQMNSLRAEDTAVYYCAREDWGGEFTDWGRGTLVTVSS
VL: QAGLTQPPSASGTSGQRVTISCSGSSSNIGINFVYWYQHLPGTAPKLLIYKNNQRPSGVPDRFSGSKSGNSASLAISGLRSEDEADYYCAAWDDSLSGYVFGSGTKVTVL
notes: as for B1
